Biological target: the molecule itself
Experiment: SEC; gel filtration on Superdex 200 10/300 GL (AKTA purifier) of thermally inactivated samples; heated at 45 °C (thermal inactivation: 0.2 mg/ml enzyme in 5 mM Tris-HCl, pH 8.0, 10 min); dimer to monomers

Protein | binding result | stoichiometry N
human brain-type creatine kinase homodimer (hBBCK) (enzyme, creatine kinase, brain type (B subunit), human; wild type; also called WT hBBCK; hBCK) not shown | binds | –
hBBCK P36L mutant (BP36L) (enzyme, creatine kinase, brain type (B subunit), human, with P36L; Site-directed mutant of m1; details are in the Supplementary Information) not shown | – | 2
